Data as given in the nanobody polyreactivity screen of Harvey et al. (2022).

Test: yeast display, Sf9 membrane polyspecificity reagent, FACS + sequencing; frameworks hold sequencing errors
Outline: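 Polyreactivity labels are assigned by the sorting gate from which each nanobody was recovered. The gates were low and high (top ~1%), set on anti-HA fluorescence for expression and streptavidin fluorescence for reagent binding. Before sorting, galactose-induced (36–48 hours) yeast display cells were stained for 1 hour at 4 °C with 10% biotinylated, detergent-solubilized Sf9 membrane reagent.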
With “QVQLVESGGGLVQAGGSLLLSCAASGSIFSAYAMGWDRQAPGKERQLVAGISKRGGSTYYADSVKGRFTISRDNAKNTVYLQMNSLKPEDTAVYYCNAARYPYARAVTYHYPSYGYWGQGTQVTVSS” the “polyreactivity (PSR sort gate)” value was “high polyreactivity”. For “QVQLVESGGGLVQAGGSLLLSCAASGSTFTQYAMGWYRQAPGKERELVAAINSRGDSTYYADSVKGRFTISRDNAKNTVYLQMNSLKPEDTAVYYCAKDPFPWALFDYWGQGTQVTVSS”, the “polyreactivity (PSR sort gate)” value was “low polyreactivity”. In the case of “QVQLVESGGGLVQAGGSLLLSCAASGSTLFLYAMGWYRQAPGKERELVAGITYSGSTYADSVKGRFTISRDNAKNTVYFQMNSLKPEDTAVYYCAKDGYWNEEYSVGMDYWGQGTQVTVSS”, the “polyreactivity (PSR sort gate)” value is reported as “low polyreactivity”. In the case of “QVQLVESGGGLVQAGGSLLLSCAASGYTFGFYAMGWYTQAPGKERELVAAISASGGSTYYADSVKGRFTISRDNAKNTVYLQMNSVKPEETAVYYCAAVYSVYYHTWVTTRDYYYWGQGTQVTVSS”, the “polyreactivity (PSR sort gate)” value is reported as “high polyreactivity”. In the case of “QVQLVESGGGLVQAGGSLLLSCAASGYTLEYNAMGWNRQAPGKEREFVARIRWSGSSTYYADSVKGRCTISRDNAKNTVYLQMNSLKPEDTAVYYCNADDGYYVGLSSAIYDYWGQGTQVTVSS”, the “polyreactivity (PSR sort gate)” value is reported as “high polyreactivity”. In the case of “QVQLVESGGGLVQAGGSLLLSCAASRSISYAYAMGWYRQAHGKERELVAAISWSDGSTYYADSVKGRFTISRDNAKNTVYLQMNSLKPEDTAVYYCAADYGWHYGDWYDYWGQGTQVTVSS”, the “polyreactivity (PSR sort gate)” value is reported as “low polyreactivity”. For “QVQLVESGGGLVQAGGSLLLSCAAYGSISPYYTMGLYRQAPGKERELVAAICSGGRTYYADSVKGRFTISRDNAKNTVYLHMNSLNPEDTSVYYCAVEVAWYVHWGDMDYWGQGTQVTVSS”, the “polyreactivity (PSR sort gate)” value was “low polyreactivity”. In the case of “QVQLVESGGGLVQAGGSLLLSCGASGFIFYAYAMGWYRQAPVKDRELVAVMSSSGGSTYYADSVTGRFSISRAHAKTTVYLEWNSLKPDDTGGYYCAAETGTGETRYYRYWDYYYWGQGTQVTVSS”, the “polyreactivity (PSR sort gate)” value is reported as “high polyreactivity”. With “QVQLVESGGGLVQAGGSLLLTCAASGRIISLYAMGWYRQAPGKERELVAGISGGTIKYYADSLKGRFTISRDNAKNTVYLQMNSLKAEDTAVYYCAAKPTYRGYGYGSWGHGTQVTVSS” the “polyreactivity (PSR sort gate)” value was “low polyreactivity”. For “QVQLVESGGGLVQAGGSLPLSCAASGLTLYGNAMGWYRQAPAKEREMVADISLSGGRTFYADSVKGRFTITRDNAKNTVYLQMNSLKPEDTAVYYCAAVCRTGWYYEYYHWGQGSQVTVSS”, the “polyreactivity (PSR sort gate)” value was “low polyreactivity”. In the case of “QVQLVESGGGLVQAGGSLPLSCAASGRTYVSYVMGRYRQAPGKEREFVAAISRSGGNTYYADSVKGRFTISRDTAKNTVYLQMNSLNPEDTAVYYCYVLLQRVYGTAPSFDYWGQGTQVTVSS”, the “polyreactivity (PSR sort gate)” value is reported as “high polyreactivity”. For “QVQLVESGGGLVQAGGSLPLSCAASGSIFGINAMGWYRQAPGKERELVAAISSRGASTYYADSVKGRFTISRDNAKNTVYLQMNSLKPEDTAVYYCAADAFYWGQGTQVTVSS”, the “polyreactivity (PSR sort gate)” value was “low polyreactivity”. With “QVQLVESGGGLVQAGGSLPLSCAASGSIFKTYAMGWYREAPGKERELVAAIRDSGDRTYYADSVKGRFTISRDNAKNTVYLQMNSLKPEDTAVYYCNARWQEALKYDYWGQGTQVTVSS” the “polyreactivity (PSR sort gate)” value was “low polyreactivity”. For “QVQLVESGGGLVQAGGSLPLSCAASGSIFMTYAIGWYRQAPGKERELVAAIRDSGDRTYYADSVKGRFTISRDNAKNTVYLQINSLKPEDTAVYYCNARWQEALKYDYWGQGTQVTVSS”, the “polyreactivity (PSR sort gate)” value was “low polyreactivity”. In the case of “QVQLVESGGGLVQAGGSLPLSCAASGSNLRRYDMGLYRQAPGKERELVAAISSSGGSTYYADSVKGRFTISRDNAKNTVYLQMNSLKPEDTAVYYCAADIYDDDRSEYTEYDYWGQGTHVTVSS”, the “polyreactivity (PSR sort gate)” value is reported as “low polyreactivity”. For “QVQLVESGGGLVQAGGSLPLSCAASGSTFDRNVMGWYRQAPGKERELVAAISRVSSTNYADSVKGRFTISRDNAKNTVNLQMNSLKPEDTAVYSCAADGAGSIMNYWGQGTQVTVSS”, the “polyreactivity (PSR sort gate)” value was “low polyreactivity”. For “QVQLVESGGGLVQAGGSLPLSCAASGSTFLQYAMGWYRQAPGKERELVAAIRGRGDSTYYADSVNGRFTISRDNEMNTVYLQMNSLKPVDSAVYSCAARGQGSRGMYYWGQGTKVTVSS”, the “polyreactivity (PSR sort gate)” value was “low polyreactivity”. With “QVQLVESGGGLVQAGGSLPLSSAASGRTFYPNAMGWYRQAPGNEREFVARISDSGGSTYYADSVKGRFTISRDNAKNTVYLQMNSLKPEDTAVYYCAADYGDPRVKEYDYWGQGTQVTVSS” the “polyreactivity (PSR sort gate)” value was “low polyreactivity”. For “QVQLVESGGGLVQAGGSLRESCAASGRIFYGNAMGCYRQAPVKERELVAAISSGTSTNYADSVKGRFTISRDNAKNTVYLEMNSLKPEDTGVYYCAAGSYSRYLYSLYFDFDYWGQGTQVTVSS”, the “polyreactivity (PSR sort gate)” value was “low polyreactivity”. With “QVQLVESGGGLVQAGGSLRFICAASGRIFRRYLMGWYRQAPGKERELVARFRIRDSNTYYADSVKGRFTISRDNAKNTVYLQMNSLKPEDTAVYNCAVVANYVYSKYDYWGQGTQVTVSS” the “polyreactivity (PSR sort gate)” value was “high polyreactivity”. In the case of “QVQLVESGGGLVQAGGSLRFRCAASGRIFSYVMGWYRQAPGKERELVAAISTGGGNTYYADSVKGRFTISRDNAKNTVYLQMNSLKPEDTAVYYCAADYYAGTFDYWGQGTQVTVSS”, the “polyreactivity (PSR sort gate)” value is reported as “high polyreactivity”. In the case of “QVQLVESGGGLVQAGGSLRFSCAASGFIFGDYAMGWDRQAPGTEREFVATISRSVGSRSYADSVKGRFTISRDNAKKPVYLQMNSLKPEDTAVYYCAAVTWGEGFDYWGQGTQVTVSA”, the “polyreactivity (PSR sort gate)” value is reported as “low polyreactivity”. With “QVQLVESGGGLVQAGGSLRFSCAASGFIFRYYAMGWYRQAPGKERELVAAIDYSGGSTIYADSVKGRFTISRDNAKNTVYLQMNSLKPEDTAVYYCNAEYTWHRGYDYWGQGTQVTVSS” the “polyreactivity (PSR sort gate)” value was “low polyreactivity”. For “QVQLVESGGGLVQAGGSLRFSCAASGFIFVRYAMGWYRQAPGKERELVAAISGSGGRTYYADSVKGRFTISRDNAKNTVYLQMTSLKPEDTAVYYCNGTSYTYGYLPYDYWGQGTQVTVSS”, the “polyreactivity (PSR sort gate)” value was “high polyreactivity”. For “QVQLVESGGGLVQAGGSLRFSCAASGGFFHGNTMGWYRQAPGKERELVAAISNSGGSTYYADSVKGRFPISRDNAKNTVYLQMNSLKPEDTAVDSCARVGYKLYQYKYDYWGQGTQVTVSS”, the “polyreactivity (PSR sort gate)” value was “low polyreactivity”. With “QVQLVESGGGLVQAGGSLRFSCAASGGNFGYYAMGWYRQAPGKERELVARISSSGGSTYYADSVKGRFTISRDNAKNTVYLQMNSLKPEDTAVYYCNTASNRYPGWRAEFDYWGQGTQVTVSS” the “polyreactivity (PSR sort gate)” value was “low polyreactivity”. In the case of “QVQLVESGGGLVQAGGSLRFSCAASGGTFYVYAMGGYRQATGKERELVAAISTSGGSTYYADSVKGRFTISRDNAKNTVYLQMNSLKPEDTAVYYCAARRVSFSGHPRYGYWGQGTQVTVSS”, the “polyreactivity (PSR sort gate)” value is reported as “high polyreactivity”. For “QVQLVESGGGLVQAGGSLRFSCAASGITFKGYAMGWYRQAPGKERELVAAINSRGGTYADSVKGRFTISRDNAKNTVYLQMNSLKPEDTAVYYCAVTAVRPLPLDSGYDYWGQGTQVTVSS”, the “polyreactivity (PSR sort gate)” value was “low polyreactivity”. For “QVQLVESGGGLVQAGGSLRFSCAASGLIFRGYTMGWYRQAPGKEREFVAAITRRGTSTYYADSVKGRFTISRDNAKNTVYLQINRLKPEDTAVYYCAARSVSGPRGYPYDYWGQGTQVTVSS”, the “polyreactivity (PSR sort gate)” value was “high polyreactivity”. With “QVQLVESGGGLVQAGGSLRFSCAASGPIFYNNAMGGYRQAPGKERELHAAISYSGGRTYYADSVKGRFTISRDNAKNTVYLQMNSLKPEDTAVYYCATRYARTAYIRSEYWGQGTQVTVSS” the “polyreactivity (PSR sort gate)” value was “high polyreactivity”. For “QVQLVESGGGLVQAGGSLRFSCAASGRICVIYAIGWYRQAPGKERELVAVINDDGSTNYADSVKGRFTISRDNAKNTVYLQMNSLKPEDTAVYYCATDYVRHAGWRRYDYWGQGTQVTVSS”, the “polyreactivity (PSR sort gate)” value was “low polyreactivity”. For “QVQLVESGGGLVQAGGSLRFSCAASGRIFTAYTMGWYRQAPGKERELVAAITRAGRTYYADSVKGRFTISRDNAKNTVYLQMNSLKPEDTAVYYCNTAPNYKYGYWGQGTQVTVSS”, the “polyreactivity (PSR sort gate)” value was “high polyreactivity”. For “QVQLVESGGGLVQAGGSLRFSCAASGRILFSYGAMGLYRQAPGRERELDAATSYSGGSTYYADSVKGRFTISRDKAKKTVYLQMNSLKPEETAVYYCDPSSIVYRHYYWGQGTQVTLSS”, the “polyreactivity (PSR sort gate)” value was “high polyreactivity”. With “QVQLVESGGGLVQAGGSLRFSCAASGRTFTVYAMGWYRQAPGKERELVAAINYSVGSTYYADSVKGRFTISRDNAKNTVYLQMNSLKPEDTAVYYCAADLYHFSYSYSYIRYDYWGQGTQVTVSS” the “polyreactivity (PSR sort gate)” value was “low polyreactivity”. In the case of “QVQLVESGGGLVQAGGSLRFSCAASGRTFVWYTMGWYRQAPGKERELVAAISSGGSTSYADSVKGRFTISRDNAKNTVYLQMNSLKPEDTAVYYCNAVWYVRYSGMDYWGQGTQVTVSS”, the “polyreactivity (PSR sort gate)” value is reported as “high polyreactivity”. For “QVQLVESGGGLVQAGGSLRFSCAASGRTFYFYAMGWYRQAPGKERELVAAIRSSGGSTNYADSVKGRFTISRDNAKNTVYLQMNSLKPEDTAVYYCAAKRRAKGNYAFYYWGQGTQVTVSS”, the “polyreactivity (PSR sort gate)” value was “high polyreactivity”. In the case of “QVQLVESGGGLVQAGGSLRFSCAASGRTLGYYTMGWYRQAPGKESELVATITPGGSTNYADSVKGRFTISRDHAKNTVYLQMNRLKPEDTAVYYCAKKKRRGYGYDYWGQGTQVTVSS”, the “polyreactivity (PSR sort gate)” value is reported as “high polyreactivity”. For “QVQLVESGGGLVQAGGSLRFSCAASGSIFQHYAMGWYRQAPGKERELVAAISWSGGSTYYADSVKGRFSISRDNAKNTVYLQMNSLKPEDTAVYYCAATKRRFVKFDYWGQGTQVTVSS”, the “polyreactivity (PSR sort gate)” value was “low polyreactivity”. For “QVQLVESGGGLVQAGGSLRFSCAASGSIFRVNAMGWYRQAPGKERELVAAITDGGITNYADSVKGRFTISRDNAKNTVYLQMNSLKPEDTAVYYCAADTDRDFHYVVPTYDYWGQGTQVTVSS”, the “polyreactivity (PSR sort gate)” value was “low polyreactivity”. With “QVQLVESGGGLVQAGGSLRFSCAASGSIFSLNTMGWYRQAHGKERELVAAITRGGSTYYADSVKGRFTISRDNAKNTVYLQMNSLKPEDTAVYYCAAVPGGNISAPYDYWGQGTQVTVSS” the “polyreactivity (PSR sort gate)” value was “high polyreactivity”. For “QVQLVESGGGLVQAGGSLRFSCAASGSIIFDGNAMAWSRQAPGKEREMVADITTSDGRTYYADSVKGRFTISRDSAKNTVYFQMNSLKPEDTAVYDCAKPNGYHGGRYDYWGQGSQVTVSS”, the “polyreactivity (PSR sort gate)” value was “low polyreactivity”. For “QVQLVESGGGLVQAGGSLRFSCAASGSTFLSNAIGWYRLAPGKERELVAAISIGGGRTYYADSVKGRFTISRDNAKNTVYLQMNSLKPEYTAVYYCNAVGRHTDAYHYDYWGQGTQVTVSS”, the “polyreactivity (PSR sort gate)” value was “high polyreactivity”. For “QVQLVESGGGLVQAGGSLRFSCAASGSTFRDYAMGWYRQAPGKERELVAAISSRGATTYYADSVKGRFTISRDNAKNTVYLQMNSLKPEDTAVYYCNARQRRNPGGYGYWGQGTQVTVSS”, the “polyreactivity (PSR sort gate)” value was “high polyreactivity”.
